Measured values from patent US20140178405A1.

What was measured:
Assay in all cases: cell-based or functional assay
[1] = target: native VP6 of bovine rotavirus C486 (SbI; P[1]G6), in the virus (bovine rotavirus strain C486)
[2] = target: native VP6 of bovine rotavirus IND (SbI; P[5]G6), in the virus (bovine rotavirus strain IND)
[3] = target: native VP6 of equine rotavirus H2 (Sb no I, no II; P[12]G3), in the virus (equine rotavirus strain H2)
[4] = target: native VP6 of human rotavirus Wa (SbII; P[8]G1), in the virus (human rotavirus strain Wa)
Chain of native VP6 of human rotavirus Wa (SbII; P[8]G1), in the virus (human rotavirus strain Wa) (P03530 whole entry): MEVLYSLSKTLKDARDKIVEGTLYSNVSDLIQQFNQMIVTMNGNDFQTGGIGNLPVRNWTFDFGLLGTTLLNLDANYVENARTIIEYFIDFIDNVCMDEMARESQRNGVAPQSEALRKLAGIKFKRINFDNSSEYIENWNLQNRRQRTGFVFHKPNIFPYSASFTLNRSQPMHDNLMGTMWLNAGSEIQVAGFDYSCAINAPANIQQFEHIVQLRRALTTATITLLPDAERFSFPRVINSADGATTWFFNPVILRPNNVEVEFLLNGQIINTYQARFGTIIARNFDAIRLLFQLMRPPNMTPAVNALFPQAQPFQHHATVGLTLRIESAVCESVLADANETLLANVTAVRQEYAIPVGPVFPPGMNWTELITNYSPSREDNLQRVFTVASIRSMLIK

Chain of native VP6 of equine rotavirus H2 (Sb no I, no II; P[12]G3), in the virus (equine rotavirus strain H2) (P16488 whole entry): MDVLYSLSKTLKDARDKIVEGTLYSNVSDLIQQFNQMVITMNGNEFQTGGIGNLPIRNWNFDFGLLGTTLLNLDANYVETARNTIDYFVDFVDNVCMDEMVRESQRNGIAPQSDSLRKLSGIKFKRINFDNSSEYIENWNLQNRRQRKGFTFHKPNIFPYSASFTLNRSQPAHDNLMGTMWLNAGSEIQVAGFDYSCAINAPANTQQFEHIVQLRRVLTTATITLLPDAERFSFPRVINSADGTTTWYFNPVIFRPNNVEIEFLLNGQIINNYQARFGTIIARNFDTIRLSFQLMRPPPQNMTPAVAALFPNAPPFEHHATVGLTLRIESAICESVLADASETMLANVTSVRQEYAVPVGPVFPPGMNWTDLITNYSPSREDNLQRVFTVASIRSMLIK

Row | Molecule | VN antibody titre (inverse of the highest VHH dilution that reduces >80% of the FFU per 100 FFU), VHH at 2 mg/ml (titre (reciprocal dilution)) [1] | VN antibody titre (inverse of the highest VHH dilution that reduces >80% of the FFU per 100 FFU), VHH at 2 mg/ml (titre (reciprocal dilution)) [2] | VN antibody titre (inverse of the highest VHH dilution that reduces >80% of the FFU per 100 FFU), VHH at 2 mg/ml (titre (reciprocal dilution)) [3] | VN antibody titre (inverse of the highest VHH dilution that reduces >80% of the FFU per 100 FFU), VHH at 2 mg/ml (titre (reciprocal dilution)) [4] | also measured
1 | non-related VHH, directed against a cellular protein | – | – | – | – | VN antibody titre (inverse of the highest VHH dilution that reduces >80% of the FFU per 100 FFU), VHH at 0.4 mg/ml (titre (reciprocal dilution)) [1]: < 8; VN antibody titre (inverse of the highest VHH dilution that reduces >80% of the FFU per 100 FFU), VHH at 0.4 mg/ml (titre (reciprocal dilution)) [2]: < 8; VN antibody titre (inverse of the highest VHH dilution that reduces >80% of the FFU per 100 FFU), VHH at 0.4 mg/ml (titre (reciprocal dilution)) [3]: < 8; VN antibody titre (inverse of the highest VHH dilution that reduces >80% of the FFU per 100 FFU), VHH at 0.4 mg/ml (titre (reciprocal dilution)) [4]: < 8
2 | VHH 3B2 anti VP6 (VHH) VHH: DVQLQASGGGLAQAGDSLTLSCAASGRTFSGYVVGWFRQAPGAEREFVGAIRWSEDSTWYGDSMKGRILISRNNIKNTVNLQMFNLKPEDTAVYVCAAGAGDIVTTETSYNYWGRGTQVTVSS | 1024 | 1024 | 512 | 8192 | –
3 | VHH 2KA4 anti VP6 (VHH) VHH: DVQLQASGGGLVQAGDSLRLSCVQSGPGRYGVGWFRQAPGKEREFVAAVSGSGGSKYYGDSVQGRFTISKDDAKNTVYLQMNNLKPEDTAVYYCAVRRTYSGSNLWHRSDEYDSWGPGTQVTVSS | < 8 | < 8 | < 8 | < 8 | –
4 | bivalent VHH biv2KA4 (bispecific antibody) MADVQLQASGGGLVQAGDSLRLSCVQSGPGRYGVGWFRQAPGKEREFVAAVSGSGGSKYYGDSVQGRFTISKDDAKNTVYLQMNNLKPEDTAVYYCAVRRTYSGSNLWHRSDEYDSWGPGTQVTVSSSGPSTPPRPSPSTPPSDVQLQASGGGLVQAGDSLRLSCVQSGPGRYGVGWFRQAPGKEREFVAAVSGSGGSKYYGDSVQGRFTISKDDAKNTVYLQMNNLKPEDTAVYYCAVRRTYSGSNLWHRSDEYDSWGPGTQVTVSSGRHHHHHH | – | – | – | – | VN antibody titre (inverse of the highest VHH dilution that reduces >80% of the FFU per 100 FFU), VHH at 0.5 mg/ml (titre (reciprocal dilution)) [1]: < 8; VN antibody titre (inverse of the highest VHH dilution that reduces >80% of the FFU per 100 FFU), VHH at 0.5 mg/ml (titre (reciprocal dilution)) [2]: < 8; VN antibody titre (inverse of the highest VHH dilution that reduces >80% of the FFU per 100 FFU), VHH at 0.5 mg/ml (titre (reciprocal dilution)) [3]: < 8; VN antibody titre (inverse of the highest VHH dilution that reduces >80% of the FFU per 100 FFU), VHH at 0.5 mg/ml (titre (reciprocal dilution)) [4]: 32
5 | VHH 2KD1 anti VP6 (VHH) VHH: DVQLQASGGGFVQPGDSLSLSCAASGGTFSSYSIGWFRQGPGKEREFVATISSSDSPWYGEPAKGRFTVARVNAKNTAYLHLNRLKPEDTATYYCAAGSVQHMANENEYVYWGQGTQVTVSS | 2048 | 2048 | 512 | 8192 | –
6 | VHH 3A6 anti VP6 (VHH) VHH: EVQLQASGGGFVQPGGSLSLSCAVSGRSFGDDVMGWFRQAPGKEREFVSAIRFRSNSPFYGDPGKGRFTIARDSAKDTVYLHMYRLRPDDTAVYYCAVGDGALVNRASDYTYWGQGTQVTVSS | 1024 | 1024 | 128 | 2048 | –
